Series [1] deals with Csx1-Crn2 H495A (Marinitoga piezophila). In words: EMSA. Conditions: apparent; both CARF and Crn2 sites intact, no cA4 cleavage in Crn2 site; cyclic tetra-adenylate, head-to-tail closed ring (no free 5' or 3' end); EMSA: 10 nM labelled cA4, 20 mM Tris-HCl pH 7.5, 150 mM NaCl, 2 mM MgCl2, 2 uM BSA, 10 min at 25 C; native 15% PAGE in 1x TBE at 28 C. In general terms: In EMSA bound probe runs differently from free probe, usually more slowly.

Series [2] has as its system Csx1-Crn2 S452Y (Marinitoga piezophila). Description: EMSA. Particulars: cyclic tetra-adenylate, head-to-tail closed ring (no free 5' or 3' end); EMSA: 10 nM labelled cA4, 20 mM Tris-HCl pH 7.5, 150 mM NaCl, 2 mM MgCl2, 2 uM BSA, 10 min at 25 C; native 15% PAGE in 1x TBE at 28 C.

For one sequence, Kd results are on record in publication PMC7293037, “Fuse to defuse: a self-limiting ribonuclease-ring nuclease fusion for type III CRISPR defence” (Nucleic Acids Research, 2020).

Turning to AAAA [cA4 (cyclic tetra-adenylate)], the Kd in series [1] was 20 nM; in series [2], 1000 nM.
